Laboratory results reported in patent US20240043507A1.

Assays:
[1] = biological target: SARS-CoV-2 spike receptor binding domain (native RBD) (SARS-CoV-2) (UniProt P0DTC2)
[2] = biological target: SARS-CoV-2 receptor binding domain, native (501N) (SARS-CoV-2) (UniProt P0DTC2); test: BLI, RBD immobilised on AR2G biosensor, 1:1 fit

Substance | Kd [1] | Kd [2]
AZD1061 (antibody) | 1.04 nM | –
AZD1061 as tested by BLI (Fab by the footnote of Table 12) | – | 1.04 nM
AZD8895 (antibody) | 1.49 nM | –
AZD8895 as tested by BLI (Fab by the footnote of Table 12) | – | 1.49 nM
REGN10933 (antibody) | 1.82 nM | –
REGN10933 as tested by BLI (Fab by the footnote of Table 12) | – | 1.82 nM
REGN10987 (antibody) | 3.85 nM | –
REGN10987 as tested by BLI (Fab by the footnote of Table 12) | – | 3.85 nM
